Assay results published in US20050266469A1, “Alternatively spliced isoforms of checkpoint kinase 1 (CHK1)” (priority 2004, published 2005).

Assays:
reference CHK1 = target: T1, reference CHK1 (Homo sapiens, UniProt O14757); settings: previously described (O'Neill et al., 2002; Jackson et al., 2000); cited from earlier work
T1 sequence (O14757 1-476): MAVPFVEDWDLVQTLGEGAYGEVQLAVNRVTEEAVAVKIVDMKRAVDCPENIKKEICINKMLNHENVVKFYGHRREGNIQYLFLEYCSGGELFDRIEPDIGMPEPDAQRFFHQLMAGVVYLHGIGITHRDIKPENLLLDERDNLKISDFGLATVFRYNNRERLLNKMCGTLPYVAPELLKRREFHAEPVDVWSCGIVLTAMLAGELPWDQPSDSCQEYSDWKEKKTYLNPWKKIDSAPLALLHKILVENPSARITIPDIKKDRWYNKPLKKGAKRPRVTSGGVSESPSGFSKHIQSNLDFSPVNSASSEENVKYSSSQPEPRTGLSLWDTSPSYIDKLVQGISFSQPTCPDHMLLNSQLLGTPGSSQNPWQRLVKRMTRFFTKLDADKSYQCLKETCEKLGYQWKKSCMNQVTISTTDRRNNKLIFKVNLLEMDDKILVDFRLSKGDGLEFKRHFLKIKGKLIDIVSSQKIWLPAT

CHK1sv1 = target: T2, CHK1sv1 (Homo sapiens, UniProt O14757); assay: CHK1sv1 kinase assay (Homogenous Time-Resolved Fluorescence, synthetic peptide substrate); format: biochemical; settings: phospho-peptide product per microgram of CHK1sv1; ATP and CDC25C peptide substrate at saturating concentrations
T2 construct: made in house; host or cells: SF9 insect cells (baculovirus, pVL1393 transfer vector)
T2 sequence (O14757 with tags, fused parts or gaps): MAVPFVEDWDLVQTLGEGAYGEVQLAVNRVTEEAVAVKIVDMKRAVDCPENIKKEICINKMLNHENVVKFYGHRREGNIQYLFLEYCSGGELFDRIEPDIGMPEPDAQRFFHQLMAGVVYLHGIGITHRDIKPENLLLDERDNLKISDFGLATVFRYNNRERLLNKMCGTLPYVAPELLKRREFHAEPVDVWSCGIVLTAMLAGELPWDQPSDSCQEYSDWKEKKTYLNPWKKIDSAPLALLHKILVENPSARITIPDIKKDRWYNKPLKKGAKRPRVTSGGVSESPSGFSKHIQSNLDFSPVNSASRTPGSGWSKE
Protocol: CHK1sv1 activity was assayed in vitro using a synthetic peptide substrate. The phophopeptide product was quantitated using a Homogenous Time-Resolved Fluorescence assay system (Park et al., 1999, Anal. Biochem. 269:94-104). The reaction mixture contained 40 mM HEPES, pH 7.3; 100 mM NaCl; 10 mM MgCl2; 2 mM dithiothreitol; 0.1% BSA; 0.1 mM ATP; 0.5 μM peptide substrate; and 0.1 nM CHK1sv1 enzyme in a final volume of 40 μl. […] The kinase reaction was incubated for 30 minutes at 22° C., and then terminated with 60 μl Stop/Detection Buffer (40 mM HEPES, pH 7.3; 10 mM EDTA; 0.125% Triton X-100; 1.25% BSA; 250 nM PhycoLink Streptavidin-Allophycocyanin (APC) Conjugate (Prozyme, San Leandro, Calif.); and […] Europium-chelate labeled anti-phosphotyrosine antibody (PY20, Perkin Elmer, Boston, Mass.)). The reaction was allowed to equilibrate for 2 hours at 22° C., and relative fluorescent units were read on a Discovery plate reader (Packard Biosciences). ATP Km was determined by varying ATP concentration from 0.003 to 3 mM in the reaction described above and determining the relative enzymatic rates. […] CHK1sv1 Vmax was calculated by determining the amount of phospho-peptide product formed per microgram of CHKsv1 when both ATP and CDC25C peptide substrate are at saturating concentrations.

B1: CHK1: human checkpoint kinase 1 reference protein (protein, UniProt O14757 1-476, looked up)
Serine/threonine-protein …: T1 sequence (O14757 1-476)
Vmax (reference CHK1): 0.6 nmol/min/µg

B2: CHK1sv1: splice variant isoform of human CHK1 protein, exon 9 spliced to exon 11, expressed in SF9 insect cells (protein, listed as Homo sapiens)
chain: T2 sequence (O14757 with tags, fused parts or gaps)
Vmax (CHK1sv1): 36 nmol/min/µg
